Experimental data: patent US10428140B2, “Anti-EphA4 antibody” (EISAI R&D MANAGEMENT CO., LTD., priority 2015, dated 2019)

B1: 87 (antibody, V domains shown)
VL: DIQMTQSPSSLSASVGDRVTITCRASENIYRNLAWYQQKPGKAPQLLLYAATNLADGVPSRFSGSGSGTDYTLTISSLQPEDFATYYCQHFWGTPWTFGQGTKVEIK
VH: QVQLVQSGSELKKPGASVKVSCKASGYTFTDYSMHWVRQAPGQGLEWMGWINTETGEPTYAQGFTGRFVFSLDTSVSTAYLQISSLKAEDTAVYYCARIPLYYYGSRYWYFDVWGQGTTVTVSS
modifications: constant regions without entry; synthetic humanized antibody light chain variable region sequence; synthetic humanized antibody heavy chain variable region sequence
B2: 88 (antibody, V domains shown)
VL: DIQMTQSPSSLSASVGDRVTITCRASENIYRNLAWYQQKPGKAPQLLLYAATNLADGVPSRFSGSGSGTDYTLTISSLQPEDFATYYCQHFWGTPWTFGQGTKVEIK
VH: QVQLVQSGSELKKPGASVKVSCKASGYTFTDYSMHWVRQAPGQGLKWMGWINTETGEPTYAQGFTGRFVFSLDTSVSTAYLQISSLKAEDTAVYYCARIPLYYYGSRYWYFDVWGQGTTVTVSS
modifications: constant regions without entry; synthetic humanized antibody light chain variable region sequence; synthetic humanized antibody heavy chain variable region sequence
B3: 89 (antibody, V domains shown)
VL: DIQMTQSPSSLSASVGDRVTITCRASENIYRNLAWYQQKPGKAPQLLLYAATNLADGVPSRFSGSGSGTDYTLTISSLQPEDFATYYCQHFWGTPWTFGQGTKVEIK
VH: QIQLVQSGSELKKPGASVKVSCKASGYTFTDYSMHWVRQAPGQGLKWMGWINTETGEPTYAQGFTGRFVFSLDTSVSTAYLQISSLKAEDTAVYYCARIPLYYYGSRYWYFDVWGQGTTVTVSS
modifications: constant regions without entry; synthetic humanized antibody light chain variable region sequence; synthetic humanized antibody heavy chain variable region sequence
B4: 90 (antibody, V domains shown)
VL: DIQMTQSPSSLSASVGDRVTITCRASENIYRNLAWYQQKPGKAPQLLLYAATNLADGVPSRFSGSGSGTDYTLTISSLQPEDFATYYCQHFWGTPWTFGQGTKVEIK
VH: QVQLVQSGSELKKPGASVKVSCKASGYTFTDYSMHWVRQAPGQGLEWMGWINTETGEPTYADDFKGRFVFSLDTSVSTAYLQISSLKAEDTAVYYCARIPLYYYGSRYWYFDVWGQGTTVTVSS
modifications: constant regions without entry; synthetic humanized antibody light chain variable region sequence; synthetic humanized antibody heavy chain variable region sequence
B5: 91 (antibody, V domains shown)
VL: DIQMTQSPSSLSASVGDRVTITCRASENIYRNLAWYQQKPGKAPQLLLYAATNLADGVPSRFSGSGSGTDYTLTISSLQPEDFATYYCQHFWGTPWTFGQGTKVEIK
VH: QVQLVQSGSELKKPGASVKVSCKASGYTFTDYSMHWVRQAPGQGLKWMGWINTETGEPTYADDFKGRFVFSLDTSVSTAYLQISSLKAEDTAVYYCARIPLYYYGSRYWYFDVWGQGTTVTVSS
modifications: constant regions without entry; synthetic humanized antibody light chain variable region sequence; synthetic humanized antibody heavy chain variable region sequence
B6: 92 (antibody, V domains shown)
VL: DIQMTQSPSSLSASVGDRVTITCRASENIYRNLAWYQQKPGKAPQLLLYAATNLADGVPSRFSGSGSGTDYTLTISSLQPEDFATYYCQHFWGTPWTFGQGTKVEIK
VH: QIQLVQSGSELKKPGASVKVSCKASGYTFTDYSMHWVRQAPGQGLKWMGWINTETGEPTYADDFKGRFVFSLDTSVSTAYLQISSLKAEDTAVYYCARIPLYYYGSRYWYFDVWGQGTTVTVSS
modifications: constant regions without entry; synthetic humanized antibody light chain variable region sequence; synthetic humanized antibody heavy chain variable region sequence
B7: 93 (antibody, V domains shown)
VL: EIVMTQSPATLSVSPGERATLSCRASENIYRNLAWYQQKPGQSPRLLIYAATNLADGIPARFSGSGSGTEYTLTISSLQSEDFAVYYCQHFWGTPWTFGQGTKVEIK
VH: QVQLVQSGSELKKPGASVKVSCKASGYTFTDYSMHWVRQAPGQGLEWMGWINTETGEPTYAQGFTGRFVFSLDTSVSTAYLQISSLKAEDTAVYYCARIPLYYYGSRYWYFDVWGQGTTVTVSS
modifications: constant regions without entry; synthetic humanized antibody light chain variable region sequence; synthetic humanized antibody heavy chain variable region sequence
B8: 94 (antibody, V domains shown)
VL: EIVMTQSPATLSVSPGERATLSCRASENIYRNLAWYQQKPGQSPRLLIYAATNLADGIPARFSGSGSGTEYTLTISSLQSEDFAVYYCQHFWGTPWTFGQGTKVEIK
VH: QVQLVQSGSELKKPGASVKVSCKASGYTFTDYSMHWVRQAPGQGLKWMGWINTETGEPTYAQGFTGRFVFSLDTSVSTAYLQISSLKAEDTAVYYCARIPLYYYGSRYWYFDVWGQGTTVTVSS
modifications: constant regions without entry; synthetic humanized antibody light chain variable region sequence; synthetic humanized antibody heavy chain variable region sequence
B9: 71 (antibody, V domains shown)
VH: QIQLVQSGSELKKPGASVKVSCKASGYTFTDYSMHWVRQAPGQGLKWMGWINTETGEPTYAQGFTGRFVFSLDTSVSTAYLQISSLKAEDTAVYYCARIPLYYYGSRYWYFDVWGQGTTVTVSS
VL: EIVMTQSPATLSVSPGERATLSCRASENIYRNLAWYQQKPGQSPRLLIYAATNLADGIPARFSGSGSGTEYTLTISSLQSEDFAVYYCQHFWGTPWTFGQGTKVEIK
modifications: synthetic humanized antibody heavy chain variable region sequence; synthetic humanized antibody light chain variable region sequence

Legend:
human EphA4 = target: T1, human EphA4 (Homo sapiens, UniProt P54764); assay: Affinity of humanized antibodies by SPR (Biacore T200); type: binding; details: human EphA4 extracellular region-SEAP-His; for ka / kd: 1:1 binding model; for Kd: KD=kd/ka
T1 construct: made in house; not restated for the human SEAP-His protein
Protocol: The binding affinity of each anti-EphA4 monoclonal humanized antibody obtained in Example 16 for human EphA4 was determined by surface plasmon resonance (SPR) using Biacore T200 (GE Healthcare). First, for the assay of antibody A, a rat anti-mouse IgG1 antibody produced with a conventional method by immunizing rat with mouse IgG1 antibody was immobilized on sensor chip CM5. The immobilization of the rat anti-mouse IgG1 antibody on sensor chip CM5 was performed by the amine coupling method using N-hydroxysuccinimide (NHS) and N-ethyl-N′-(3-dimethylaminopropyl)carbodiimide hydrochloride (EDC). Ethanolamine was used in blocking (the sensor chip and the reagents for immobilization were all manufactured by GE Healthcare). The antibody was diluted with a buffer solution for immobilization (10 mM sodium acetate, pH 4.5) and immobilized on the sensor chip according to the protocol attached to Biacore T200. For the assay of each humanized monoclonal antibody, a protein A chip (GE Healthcare, 29-1383-03) was used. Antibody A or the humanized monoclonal antibody was diluted with a running buffer solution HBS-EP (GE Healthcare), injected onto only flow cell 2 for 120 seconds, and captured (captured amount: approximately 30 to 60 RU). Subsequently, human EphA4 extracellular region-SEAP-His protein serially diluted in the range of 50, 16.7, 5.6, 1.9, and 0.6 nM using HBS-EP was sequentially added from the lower toward higher concentration sides without regeneration operation. Binding reaction curves were sequentially observed at the time of the addition (association phase, for 120 sec) and after the completion of the addition (dissociation phase, for 900 sec). After the completion of each observation, the sensor chip was regenerated by the addition of 3 M MgCl2 (for 60 sec) or 10 mM Glycine-HCl pH 1.5 (for 30 sec). The obtained binding reaction curves were subjected to fitting analysis with 1:1 binding models using software BIA evaluation attached to the system to calculate the affinity (KD=kd/ka) for human EphA4 (Table 6).

[1] = target: T2, human EphA4 (binding to human Ephrin A5) (Homo sapiens, UniProt P54764); assay: Human EphA4-human ligand binding inhibition ELISA of humanized antibodies (biotinylated Ephrin A5-Fc); details: biotinylated human Ephrin A5-Fc 0.7 nM
T2 construct: made in house; not restated for the human SEAP-His protein
Protocol: Each anti-EphA4 monoclonal humanized antibody obtained in Example 16 was evaluated for its inhibitory activity against the binding between human EphA4 and its human ligand according to the following steps. Each well of a 96-well plate (Nunc) was coated with an anti-alkaline phosphatase antibody (Thermo Fisher Scientific). After incubation overnight at 4° C., each well was blocked with 1% BlockAce (DS Pharma Biomedical) at room temperature for 1 hour. After washing with 0.05% Tween 20/PBS (Thermo Fisher Scientific) three times, the human EphA4 extracellular region-SEAP-His protein obtained by the method of Example 2 was added (final concentration: 10 nM) to each well and incubated at room temperature for 1 hour. After washing three times, a ligand and each serially diluted humanized antibody of antibody A (0, 0.003, 0.01, 0.03, 0.1, 0.3, 1, 3, 10, 30, 100, 300, 1000, and 3000 nM) were added to each well. The ligand used was biotinylated human Ephrin A5-Fc chimera (R&D Systems, final concentration: 0.7 nM). After incubation at room temperature for 1 hour and subsequent washing three times, horseradish peroxidase-labeled streptavidin (GE Healthcare) was added thereto and incubated at room temperature for 1 hour. After washing three times, a TMBZ (3,3′,5,5′-tetramethylbenzidine, Sigma-Aldrich) solution was added to each well and incubated at room temperature for 2 minutes. An equal amount of a reaction stopping solution (1N H2SO4, Wako Pure Chemical Industries) was added to each well. The absorbance at 450 nm was read using a microplate reader (PerkinElmer).

T2 sequence (P54764 20-547): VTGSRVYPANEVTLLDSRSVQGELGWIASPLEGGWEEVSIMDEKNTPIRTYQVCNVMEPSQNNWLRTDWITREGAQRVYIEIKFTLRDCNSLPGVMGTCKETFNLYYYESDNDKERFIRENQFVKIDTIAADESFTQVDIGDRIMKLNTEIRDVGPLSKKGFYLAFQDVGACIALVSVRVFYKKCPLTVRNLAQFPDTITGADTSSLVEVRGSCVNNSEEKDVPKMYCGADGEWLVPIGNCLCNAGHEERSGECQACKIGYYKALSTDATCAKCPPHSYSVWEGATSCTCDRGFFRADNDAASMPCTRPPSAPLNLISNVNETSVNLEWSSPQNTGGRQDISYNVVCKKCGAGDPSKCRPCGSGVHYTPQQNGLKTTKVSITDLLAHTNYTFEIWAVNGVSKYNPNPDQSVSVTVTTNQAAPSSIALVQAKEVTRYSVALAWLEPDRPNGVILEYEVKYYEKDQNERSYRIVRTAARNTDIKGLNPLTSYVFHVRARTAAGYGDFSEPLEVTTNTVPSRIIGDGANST
T1 sequence (P54764 20-547): as above

| Molecule | ka (human EphA4) [M⁻¹ s⁻¹] | kd (human EphA4) [s⁻¹] | Kd (human EphA4) [nM] | IC50 [1] [nM] |
| --- | --- | --- | --- | --- |
| B1 | 350000 | 0.00051 | 1.5 | 3 |
| B2 | 300000 | 0.00042 | 1.4 | 3.6 |
| B3 | 310000 | 0.00041 | 1.3 | 4.3 |
| B4 | 360000 | 0.00055 | 1.5 | 4.5 |
| B5 | 330000 | 0.00044 | 1.3 | 4.9 |
| B6 | 330000 | 0.00043 | 1.3 | 3.5 |
| B7 | 310000 | 0.00024 | 0.77 | 2.5 |
| B8 | 260000 | 0.00024 | 0.95 | 2.7 |
| B9 | 280000 | 0.00023 | 0.82 | 2.5 |
